# Laboratory results reported in PMC9482650, “Quantitative fragmentomics allow affinity mapping of interactomes” (Nature Communications, 2022).
# Key:
# Experiment in all cases: holdup assay
# Set-up in all cases: key: below the threshold = too weak to quantify, mostly under pKd 3.1 to 4
# [1] = biological target: MAGI2_3, Q86UL8
# [2] = biological target: T1, GRIP1_5, Q9Y3R0
# T1 sequence (Q9Y3R0 568-668, limits assumed, looked up): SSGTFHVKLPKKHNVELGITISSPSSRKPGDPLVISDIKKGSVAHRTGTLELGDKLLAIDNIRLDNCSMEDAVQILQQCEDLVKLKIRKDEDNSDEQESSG
# [3] = biological target: LNX1_3, Q8TBB1
# Sequence of LNX1_3, Q8TBB1 (Q8TBB1 500-596): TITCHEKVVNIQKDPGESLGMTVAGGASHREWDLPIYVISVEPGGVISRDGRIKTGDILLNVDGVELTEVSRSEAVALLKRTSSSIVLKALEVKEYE
# [4] = biological target: T2, SHANK1, Q9Y566
# T2 sequence (Q9Y566 658-767, limits assumed, looked up): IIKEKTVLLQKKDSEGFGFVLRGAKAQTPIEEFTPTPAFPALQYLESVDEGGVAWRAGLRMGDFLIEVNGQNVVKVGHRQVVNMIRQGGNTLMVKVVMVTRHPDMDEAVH
# [5] = biological target: DLG2_3, Q15700
# [6] = biological target: PTPN3, P26045
# Sequence of PTPN3, P26045 (P26045 505-587): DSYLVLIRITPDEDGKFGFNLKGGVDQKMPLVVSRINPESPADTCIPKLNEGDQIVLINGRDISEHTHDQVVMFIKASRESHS
# [7] = biological target: Inadl_10, Q8NI35
# Sequence of Inadl_10, Q8NI35 (Q8NI35 1673-1763): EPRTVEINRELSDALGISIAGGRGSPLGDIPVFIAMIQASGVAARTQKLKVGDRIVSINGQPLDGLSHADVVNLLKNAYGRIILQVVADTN
# [8] = biological target: T3, FRMPD1, Q5SYB0
# T3 sequence (Q5SYB0 52-145, limits assumed, looked up): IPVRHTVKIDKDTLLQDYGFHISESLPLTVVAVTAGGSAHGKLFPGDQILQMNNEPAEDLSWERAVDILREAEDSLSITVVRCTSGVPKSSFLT
# [9] = biological target: NHERF4_2, Q86UT5
# Sequence of NHERF4_2, Q86UT5 (Q86UT5 220-308): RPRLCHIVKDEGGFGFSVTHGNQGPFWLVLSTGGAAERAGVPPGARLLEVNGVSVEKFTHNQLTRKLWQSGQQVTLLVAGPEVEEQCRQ
# [10] = biological target: T4, PARD3B_1, Q8TEW8
# T4 sequence (Q8TEW8 196-299, limits assumed, looked up): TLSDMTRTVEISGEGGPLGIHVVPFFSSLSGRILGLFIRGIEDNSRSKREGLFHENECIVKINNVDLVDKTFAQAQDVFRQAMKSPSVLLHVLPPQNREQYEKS
# [11] = biological target: Inadl_6, Q8NI35
# Sequence of Inadl_6, Q8NI35 (Q8NI35 1058-1167): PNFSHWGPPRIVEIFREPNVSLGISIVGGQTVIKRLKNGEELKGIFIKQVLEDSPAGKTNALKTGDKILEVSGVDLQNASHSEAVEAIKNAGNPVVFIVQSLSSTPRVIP
# [12] = biological target: PDLIM1, O00151
# Sequence of PDLIM1, O00151 (O00151 1-87): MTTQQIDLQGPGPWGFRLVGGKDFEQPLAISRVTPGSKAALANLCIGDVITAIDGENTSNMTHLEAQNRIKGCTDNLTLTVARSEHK
# [13] = biological target: Inadl_4, Q8NI35
# Sequence of Inadl_4, Q8NI35 (Q8NI35 547-651): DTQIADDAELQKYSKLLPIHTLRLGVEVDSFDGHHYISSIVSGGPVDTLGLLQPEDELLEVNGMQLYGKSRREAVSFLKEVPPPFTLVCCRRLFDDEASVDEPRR
# [14] = biological target: T5, GRIP1_4, Q9Y3R0
# T5 sequence (Q9Y3R0 467-571, limits assumed, looked up): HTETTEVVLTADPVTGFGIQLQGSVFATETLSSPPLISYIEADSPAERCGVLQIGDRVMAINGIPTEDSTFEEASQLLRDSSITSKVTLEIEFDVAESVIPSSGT
# [15] = biological target: T6, SIPA1L2, Q9P2F8
# T6 sequence (Q9P2F8 945-1036, limits assumed, looked up): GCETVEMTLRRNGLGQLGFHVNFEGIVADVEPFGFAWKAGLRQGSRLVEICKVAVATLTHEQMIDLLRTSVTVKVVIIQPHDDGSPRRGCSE
# [16] = biological target: FRMPD2_1, Q68DX3
# Sequence of FRMPD2_1, Q68DX3 (Q68DX3 770-861): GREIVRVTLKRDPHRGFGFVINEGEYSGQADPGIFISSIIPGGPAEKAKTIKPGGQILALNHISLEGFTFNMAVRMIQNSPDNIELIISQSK
# [17] = biological target: T7, DFNB31_3, Q9P202
# T7 sequence (Q9P202 811-907, limits assumed, looked up): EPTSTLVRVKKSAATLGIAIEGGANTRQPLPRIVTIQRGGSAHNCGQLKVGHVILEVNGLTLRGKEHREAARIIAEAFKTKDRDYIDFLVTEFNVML
# [18] = biological target: T8, PDZD7_3, Q9H5P4
# T8 sequence (Q9H5P4 857-944, limits assumed, looked up): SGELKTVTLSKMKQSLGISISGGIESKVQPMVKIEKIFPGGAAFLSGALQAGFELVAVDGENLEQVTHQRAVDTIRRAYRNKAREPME
# [19] = biological target: PDZRN4_1, Q6ZMN7
# Sequence of PDZRN4_1, Q6ZMN7 (Q6ZMN7 213-318): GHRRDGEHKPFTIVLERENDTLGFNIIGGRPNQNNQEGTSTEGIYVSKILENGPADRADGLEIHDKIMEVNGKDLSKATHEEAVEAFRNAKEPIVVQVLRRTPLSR
# [20] = biological target: MAGI3_2, Q5TCQ9
# Sequence of MAGI3_2, Q5TCQ9 (Q5TCQ9 398-503): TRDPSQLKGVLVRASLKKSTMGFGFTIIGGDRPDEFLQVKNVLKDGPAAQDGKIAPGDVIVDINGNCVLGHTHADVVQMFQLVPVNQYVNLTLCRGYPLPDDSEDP
# [21] = biological target: Inadl_1, Q8NI35
# Sequence of Inadl_1, Q8NI35 (Q8NI35 113-229): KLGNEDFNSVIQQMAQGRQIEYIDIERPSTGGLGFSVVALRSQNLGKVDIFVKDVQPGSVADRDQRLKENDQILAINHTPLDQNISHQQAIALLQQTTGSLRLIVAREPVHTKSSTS
# [22] = biological target: NOS1, P29475
# Sequence of NOS1, P29475 (P29475 9-101): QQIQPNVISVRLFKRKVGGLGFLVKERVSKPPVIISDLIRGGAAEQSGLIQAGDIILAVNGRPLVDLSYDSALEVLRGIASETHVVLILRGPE
# [23] = biological target: T9, MPDZ_5, O75970
# T9 sequence (O75970 695-796, limits assumed, looked up): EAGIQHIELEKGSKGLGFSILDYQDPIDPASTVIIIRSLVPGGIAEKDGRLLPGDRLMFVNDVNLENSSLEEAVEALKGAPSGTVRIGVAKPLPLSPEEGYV
# [24] = biological target: T10, APBA1_2, Q02410
# T10 sequence (Q02410 742-832, limits assumed, looked up): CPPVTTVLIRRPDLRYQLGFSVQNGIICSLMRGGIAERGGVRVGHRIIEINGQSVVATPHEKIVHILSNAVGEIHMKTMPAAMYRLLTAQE
# [25] = biological target: T11, LNX2_2, Q8N448
# T11 sequence (Q8N448 334-432, limits assumed, looked up): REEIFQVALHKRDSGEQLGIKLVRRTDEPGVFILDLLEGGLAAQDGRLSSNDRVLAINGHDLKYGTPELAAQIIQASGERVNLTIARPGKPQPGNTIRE
# [26] = biological target: FRMPD3, Q5JV73
# Sequence of FRMPD3, Q5JV73 (Q5JV73 12-100): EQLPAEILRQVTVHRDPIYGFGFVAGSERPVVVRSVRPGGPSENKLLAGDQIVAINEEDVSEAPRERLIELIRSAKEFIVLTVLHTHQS
# [27] = biological target: FRMPD4, Q14CM0
# Sequence of FRMPD4, Q14CM0 (Q14CM0 67-160): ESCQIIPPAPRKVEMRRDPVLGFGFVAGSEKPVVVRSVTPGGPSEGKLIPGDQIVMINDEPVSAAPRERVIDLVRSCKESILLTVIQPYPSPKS
# [28] = plain residues with an end cap or a label only (N-terminal biotin on a linker: ttds)
# [29] = plain residues with an end cap or a label only (N-terminal biotin on a linker: ahx)
# [30] = plain residues with an end cap or a label only (N-terminal biotin on a linker: ado-ado)
# Sequence of MAGI2_3, Q86UL8 (Q86UL8 600-682): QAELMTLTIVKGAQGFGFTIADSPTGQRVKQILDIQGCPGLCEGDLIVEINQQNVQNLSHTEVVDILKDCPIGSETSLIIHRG
binder,measurement,setting,value
"QFQYAKESYI [TAGAP, Q8N103]",pKd,[1]; [28],below the threshold
same,pKd,[2]; [28],below the threshold
same,pKd,[3]; [28],below the threshold
same,pKd,[4]; [28],below the threshold
same,pKd,[5]; [28],3.95
same,pKd,[6]; [28],4.84
same,pKd,[7]; [28],below the threshold
same,pKd,[8]; [28],below the threshold
same,pKd,[9]; [28],below the threshold
same,pKd,[10]; [28],3.98
same,pKd,[11]; [28],4.06
same,pKd,[12]; [28],below the threshold
same,pKd,[13]; [28],below the threshold
same,pKd,[14]; [28],below the threshold
same,pKd,[15]; [28],below the threshold
same,pKd,[16]; [28],below the threshold
same,pKd,[17]; [28],below the threshold
same,pKd,[18]; [28],4.87
same,pKd,[19]; [28],3.96
same,pKd,[20]; [28],4.6
same,pKd,[21]; [28],below the threshold
same,pKd,[22]; [28],3.82
same,pKd,[23]; [28],below the threshold
same,pKd,[24]; [28],3.8
same,pKd,[25]; [28],below the threshold
same,pKd,[26]; [28],below the threshold
same,pKd,[27]; [28],below the threshold
"SRRPRTETQV [HPV31-E6, P17386]",pKd,[1]; [28],4.1
same,pKd,[2]; [28],below the threshold
same,pKd,[3]; [28],below the threshold
same,pKd,[4]; [28],below the threshold
same,pKd,[5]; [28],5.1
same,pKd,[6]; [28],4.66
same,pKd,[7]; [28],below the threshold
same,pKd,[8]; [28],below the threshold
same,pKd,[9]; [28],below the threshold
same,pKd,[10]; [28],below the threshold
same,pKd,[11]; [28],below the threshold
same,pKd,[12]; [28],below the threshold
same,pKd,[13]; [28],below the threshold
same,pKd,[14]; [28],below the threshold
same,pKd,[15]; [28],below the threshold
same,pKd,[16]; [28],below the threshold
same,pKd,[17]; [28],below the threshold
same,pKd,[18]; [28],3.71
same,pKd,[19]; [28],4.19
same,pKd,[20]; [28],5.87
same,pKd,[21]; [28],below the threshold
same,pKd,[22]; [28],3.91
same,pKd,[23]; [28],below the threshold
same,pKd,[24]; [28],below the threshold
same,pKd,[25]; [28],below the threshold
same,pKd,[26]; [28],below the threshold
same,pKd,[27]; [28],below the threshold
"TIVSWPGTFL [LNX1, Q8TBB1]",pKd,[1]; [29],below the threshold
same,pKd,[2]; [29],below the threshold
same,pKd,[3]; [29],below the threshold
same,pKd,[4]; [29],4.24
same,pKd,[5]; [29],below the threshold
same,pKd,[6]; [29],4.52
same,pKd,[7]; [29],4.25
same,pKd,[8]; [29],below the threshold
same,pKd,[9]; [29],below the threshold
same,pKd,[10]; [29],4.31
same,pKd,[11]; [29],4.1
same,pKd,[12]; [29],3.63
same,pKd,[13]; [29],below the threshold
same,pKd,[14]; [29],below the threshold
same,pKd,[15]; [29],below the threshold
same,pKd,[16]; [29],below the threshold
same,pKd,[17]; [29],below the threshold
same,pKd,[18]; [29],4.13
same,pKd,[19]; [29],4.16
same,pKd,[20]; [29],below the threshold
same,pKd,[21]; [29],below the threshold
same,pKd,[22]; [29],below the threshold
same,pKd,[23]; [29],below the threshold
same,pKd,[24]; [29],4.33
same,pKd,[25]; [29],below the threshold
same,pKd,[26]; [29],below the threshold
same,pKd,[27]; [29],3.73
"GKKSVKHSKI [ACOT6, Q3I5F7]",pKd,[1]; [30],below the threshold
same,pKd,[2]; [30],below the threshold
same,pKd,[3]; [30],below the threshold
same,pKd,[4]; [30],below the threshold
same,pKd,[5]; [30],3.65
same,pKd,[6]; [30],4.19
same,pKd,[7]; [30],below the threshold
same,pKd,[8]; [30],below the threshold
same,pKd,[9]; [30],below the threshold
same,pKd,[10]; [30],below the threshold
same,pKd,[11]; [30],below the threshold
same,pKd,[12]; [30],below the threshold
same,pKd,[13]; [30],below the threshold
same,pKd,[14]; [30],below the threshold
same,pKd,[15]; [30],below the threshold
same,pKd,[16]; [30],below the threshold
same,pKd,[17]; [30],3.85
same,pKd,[18]; [30],4.58
same,pKd,[19]; [30],below the threshold
same,pKd,[20]; [30],4.07
same,pKd,[21]; [30],below the threshold
same,pKd,[22]; [30],below the threshold
same,pKd,[23]; [30],below the threshold
same,pKd,[24]; [30],below the threshold
same,pKd,[25]; [30],below the threshold
same,pKd,[26]; [30],below the threshold
same,pKd,[27]; [30],below the threshold
"NQLAWFDTDL [CTNNB1, P35222]",pKd,[1]; [28],below the threshold
same,pKd,[2]; [28],below the threshold
same,pKd,[3]; [28],below the threshold
same,pKd,[4]; [28],4.1
same,pKd,[5]; [28],below the threshold
same,pKd,[6]; [28],4.33
same,pKd,[7]; [28],below the threshold
same,pKd,[8]; [28],below the threshold
same,pKd,[9]; [28],below the threshold
same,pKd,[10]; [28],below the threshold
same,pKd,[11]; [28],4.13
same,pKd,[12]; [28],4.16
same,pKd,[13]; [28],below the threshold
same,pKd,[14]; [28],below the threshold
same,pKd,[15]; [28],below the threshold
same,pKd,[16]; [28],below the threshold
same,pKd,[17]; [28],below the threshold
same,pKd,[18]; [28],below the threshold
same,pKd,[19]; [28],below the threshold
same,pKd,[20]; [28],below the threshold
same,pKd,[21]; [28],below the threshold
same,pKd,[22]; [28],below the threshold
same,pKd,[23]; [28],below the threshold
same,pKd,[24]; [28],below the threshold
same,pKd,[25]; [28],below the threshold
same,pKd,[26]; [28],below the threshold
same,pKd,[27]; [28],4.28
